Source: US20160280784A1, “Antibodies Directed to GPNMB and Uses Thereof” (Celldex Therapeutics, Inc., priority 2009, published 2016)

Assays:
[1] = test system: GPNMB-expressing breast cancer cells; assay: growth / killing of GPNMB-expressing breast cancer cells in vitro; format: cell-based
[2] = test system: melanoma; details: melanoma patients; cited from earlier work
[3] = test system: patients with locally advanced or metastatic breast cancer; assay: Phase I/II study of CDX-011, preliminary 18 patients: toxicity and dose escalation; format: in vivo, human
Method: (§1) There was no limit to the number of prior regimens.
(§2) For Phase I dose escalation studies, the starting dose was 1.34 mg/kg IV every three weeks (q3w). Sequential dose cohorts (n=3) were enrolled based on tolerability. The cap was set at 1.88 mg/kg IV q3w.
The toxicity results are shown below in Table 34. All treatment-emergent adverse events are shown in the table, regardless of attribution.

[4] = test system: patients with locally advanced or metastatic breast cancer; assay: Phase II study (n = 42): tolerability of CR011-vcMMAE (CDX-011); format: in vivo, human
From the text: (§3) For the Phase II Simon Two-Stage study, the primary endpoint was set at progression-free rate at 12 weeks. The following statistical assumptions were used p0=10%; p1=30%; α=β=0.10; first stage included sixteen patients; and if two or more patients were progression-free at 12 weeks, the total enrollment would increase to 25.
In particular, the treated patients (n=42) received a mean of 3.5 (range 1-8) cycles of treatment during this study. Four patients discontinued treatment due to adverse events (neuropathy, rash, dermatologic bullae and acute renal failure). Dose-escalation dose-limiting toxicities (DLTs) were limited to two cases of neuropathy (at the 1.34 mg/kg dose). After revision of the protocol to exclude pre-existing neuropathy ≧Grade 2, no further DLT occurred.

[5] = test system: patients with locally advanced or metastatic breast cancer; assay: Phase II Simon Two-Stage study / Phase II dose: anti-tumor activity (RECIST); format: in vivo, human; details: for Median PFS: Phase II Dose 1.88 mg/kg
Method: as §3
Additional measures of anti-tumor activity were evaluated for the patients in this further study.

[6] = test system: patients with locally advanced or metastatic breast cancer; assay: Phase I/II study of CDX-011, preliminary 18 patients: tumor response; format: in vivo, human
Method: as §1, §2

[7] = 18 patients, regardless of attribution
[8] = All Patients (n = 42), potentially related to CDX-011
[9] = one patient with triple-negative disease, strongly positive stromal GPNMB expression

glembatumumab vedotin [CDX-011]
killing of GPNMB-expressing breast cancer cells [1]: selectively killed
growth of GPNMB-expressing breast cancer cells ([1]; in vitro): effectively inhibits the growth
clinical activity [2]: clinical activity
tolerability [2]: well tolerated
tolerability in dose escalation ([3]; 1.88 mg/kg IV q3w): tolerated
Alopecia, Total [3, 7]: 9 (50%) n (%)
Anorexia, Grade 3 [3, 7]: 0 (0%) n (%)
Anorexia, Grade 4 [3, 7]: 0 (0%) n (%)
Anorexia, Total [3, 7]: 5 (28%) n (%)
Any Event, Grade 3 [3, 7]: 10 (56%) n (%)
Any Event, Grade 4 [3, 7]: 0 (0%) n (%)
Any Event, Total [3, 7]: 18 (100%) n (%)
Constipation, Grade 3 [3, 7]: 0 (0%) n (%)
Constipation, Grade 4 [3, 7]: 0 (0%) n (%)
Constipation, Total [3, 7]: 6 (33%) n (%)
Cough, Grade 3 [3, 7]: 1 (6%) n (%)
Cough, Grade 4 [3, 7]: 0 (0%) n (%)
Cough, Total [3, 7]: 6 (33%) n (%)
Diarrhea, Grade 3 [3, 7]: 0 (0%) n (%)
Diarrhea, Grade 4 [3, 7]: 0 (0%) n (%)
Diarrhea, Total [3, 7]: 5 (28%) n (%)
Dizziness, Grade 3 [3, 7]: 0 (0%) n (%)
Dizziness, Grade 4 [3, 7]: 0 (0%) n (%)
Dizziness, Total [3, 7]: 4 (22%) n (%)
Dysgeusia, Grade 3 [3, 7]: 0 (0%) n (%)
Dysgeusia, Grade 4 [3, 7]: 0 (0%) n (%)
Dysgeusia, Total [3, 7]: 4 (22%) n (%)
Fatigue, Grade 3 [3, 7]: 1 (6%) n (%)
Fatigue, Grade 4 [3, 7]: 0 (0%) n (%)
Fatigue, Total [3, 7]: 9 (50%) n (%)
Fever, Grade 3 [3, 7]: 0 (0%) n (%)
Fever, Grade 4 [3, 7]: 0 (0%) n (%)
Fever, Total [3, 7]: 5 (28%) n (%)
Nausea, Grade 3 [3, 7]: 1 (6%) n (%)
Nausea, Grade 4 [3, 7]: 0 (0%) n (%)
Nausea, Total [3, 7]: 8 (44%) n (%)
Neuropathy, Grade 3 [3, 7]: 2 (11%) n (%)
Neuropathy, Grade 4 [3, 7]: 0 (0%) n (%)
Neuropathy, Total [3, 7]: 7 (39%) n (%)
Neutropenia, Grade 3 [3, 7]: 3 (17%) n (%)
Neutropenia, Grade 4 [3, 7]: 0 (0%) n (%)
Neutropenia, Total [3, 7]: 5 (28%) n (%)
Pain, Gastrointestinal, Grade 3 [3, 7]: 1 (6%) n (%)
Pain, Gastrointestinal, Grade 4 [3, 7]: 0 (0%) n (%)
Pain, Gastrointestinal, Total [3, 7]: 6 (33%) n (%)
Pain, Musculoskeletal, Grade 3 [3, 7]: 1 (6%) n (%)
Pain, Musculoskeletal, Grade 4 [3, 7]: 0 (0%) n (%)
Pain, Musculoskeletal, Total [3, 7]: 5 (28%) n (%)
Pruritus, Grade 3 [3, 7]: 0 (0%) n (%)
Pruritus, Grade 4 [3, 7]: 0 (0%) n (%)
Pruritus, Total [3, 7]: 3 (17%) n (%)
Rash, Grade 3 [3, 7]: 1 (6%) n (%)
Rash, Grade 4 [3, 7]: 0 (0%) n (%)
Rash, Total [3, 7]: 11 (61%) n (%)
Vomiting, Grade 3 [3, 7]: 0 (0%) n (%)
Vomiting, Grade 4 [3, 7]: 0 (0%) n (%)
Vomiting, Total [3, 7]: 7 (39%) n (%)
dose-limiting toxicity ([3]; first two patients enrolled at 1.34 mg/kg IV q3w, both had baseline neuropathy): dose-limiting worsening of peripheral sensory neuropathy
patients discontinued for an adverse event ([3]; of 18 patients treated, one for neuropathy and one for rash): two
tolerability ([4]; 1.88 mg/kg IV q3w, patients with advanced breast cancer): well-tolerated
Alopecia, Total [4, 8]: 14 (33%) n (%)
Anemia, Total [4, 8]: 10 (24%) n (%)
Asthenia, Grade 3 [4, 8]: 2 (5%) n (%)
Asthenia, Total [4, 8]: 3 (7%) n (%)
Fatigue, Grade 3 [4, 8]: 2 (5%) n (%)
Fatigue, Total [4, 8]: 20 (48%) n (%)
Nausea, Grade 3 [4, 8]: 2 (5%) n (%)
Nausea, Total [4, 8]: 19 (45%) n (%)
Neuropathy, Grade 3 [4, 8]: 1 (2%) n (%)
Neuropathy, Total [4, 8]: 10 (24%) n (%)
Neutropenia, Grade 3 [4, 8]: 8 (19%) n (%)
Neutropenia, Total [4, 8]: 12 (29%) n (%)
Rash, Grade 3 [4, 8]: 2 (5%) n (%)
Rash, Total [4, 8]: 19 (45%) n (%)
Vomiting, Grade 3 [4, 8]: 1 (2%) n (%)
Vomiting, Total [4, 8]: 12 (29%) n (%)
serious adverse events potentially related ([4]; all single cases at the Phase II dose): intractable vomiting/nausea, dermatologic bullae and acute renal failure
dose-escalation dose-limiting toxicities (DLTs) ([4]; at the 1.34 mg/kg dose): two
patients discontinued treatment due to adverse events ([4]; n=42, neuropathy, rash, dermatologic bullae and acute renal failure): Four
most common adverse event reported ([4]; patients treated with CR011-vcMMAE): Rash
Median PFS ([5]; all patients): 9.1 weeks
Median PFS ([5]; Expressing GPNMB): 18.3 weeks
Median PFS ([5]; Triple-negative disease): 17.9 weeks
outcomes by expression of GPNMB ([5]; heavily pretreated advanced breast cancer patients): associated with improved outcomes
duration partial response was maintained [5, 9]: ≥ 23 weeks
tumor shrinkage (partial response) [5, 9]: 53%
patients without progression at 12 weeks (primary efficacy endpoint) ([5]; out of 26 patients): at least 9 patients
tumor shrinkage ([6]; initial results from a phase I/II trial, metastatic breast cancer): tumor shrinkage was observed
confirmed partial response ([6]; of the 18 patients): one
patients with at least a partial response ([6]; of the 18 patients): three
tumor shrinkage observed ([6]; of the 18 patients (50%)): 9 patients
maximum tumor reduction ([6]; one patient, ER+/PR+/HER2+, partial response after two cycles, confirmed 6 weeks later, treatment for over 5 months): 42%
reduction in target lesions (partial response, CT) ([6]; one patient, ER+/PR+/HER2−, GPNMB positive biopsy, after two cycles): 51%
clinical outcome ([6]; one patient, triple negative, skull metastases, following two cycles, resolution of mental nerve paresis and discontinuation of analgesics): marked clinical improvement
reduction in target lesions (partial response, CT) ([6]; one patient, triple negative, after four cycles): 34%
